Like-named read-outs stand apart in the source and are kept apart here.
How the values were obtained:
[1] = Critical aggregation concentration (CAC) of surfactants, dynamic light scattering; assay type: physicochemical
Protocol: In a further embodiment, the surfactant peptide is added to the mammalian membrane protein at a concentration that is based on the CAC of the surfactant peptide. The CAC of surfactants can be determined experimentally using known dynamic light scattering methods. A minimal amount of sample can be used in this method. Each CAC determination takes a few hours, therefore it is possible to determine the CAC for a large number of peptide detergents in a few weeks. It is known that the lower the CAC, the more hydrophobic the detergents and the stronger the aggregation in water. The CAC for several peptide surfactants in water is shown below in Table 1.
Similar to common surfactants, these peptide surfactants have defined critical aggregation concentrations (CACs) in the sub-millimolar to millimolar range, depending on the hydrophobicity of the tails and the ionic concentration. For example, in water, A6D has a CAC of ≈1.6 mM, and A6K has a CAC of 1.5 mM; however, in phosphate-based saline (PBS) (10 mM sodium phosphate/150 mM NaCl, pH 7.4), A6D has a CAC of 0.25 mM and A6K has a CAC of ≈0.23 mM. This difference is due the charge screening effect in accordance with the Derjaguin-Landau-Verwey-Overbeck (DVLO) theory, which postulates that a critical coagulation concentration of counterions is required to allow assembly and that this concentration will be inversely proportional to the valence of the counterion raised to the sixth power (28). The peptide surfactant supramolecular structure is similar to that of phospholipids; namely, the formation of a polar interface sequesters the hydrophobic tails from water.

GPCR bovine rhodopsin [2] = biological target: T1, GPCR bovine rhodopsin (Bos taurus, UniProt P02699); assay: Thermal stability of rhodopsin in peptide solution in the presence of surfactant (decay of A500); assay type: biochemical
T1 construct: Bovine retinae rod outer segment membranes were prepared (40, 41) and urea-stripped (42); tissue J. A. Lawson (Lincoln, Nebr.); host or cells: bovine retinae, rod outer segments
T1 sequence (P02699 whole entry): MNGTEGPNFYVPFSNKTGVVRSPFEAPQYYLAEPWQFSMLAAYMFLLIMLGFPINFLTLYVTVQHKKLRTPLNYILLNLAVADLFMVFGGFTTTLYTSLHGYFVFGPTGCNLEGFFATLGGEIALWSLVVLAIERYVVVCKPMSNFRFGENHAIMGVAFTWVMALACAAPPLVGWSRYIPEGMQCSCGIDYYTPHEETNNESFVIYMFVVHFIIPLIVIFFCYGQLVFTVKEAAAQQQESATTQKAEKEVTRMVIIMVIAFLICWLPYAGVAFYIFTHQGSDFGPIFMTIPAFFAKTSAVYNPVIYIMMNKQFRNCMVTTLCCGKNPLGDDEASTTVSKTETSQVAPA
Protocol: Solubilization of Rhodopsin in Different Surfactants. Bovine retinae rod outer segment membranes were prepared (40, 41) and urea-stripped (42). Samples of the membranes containing 1.4 nmol of rhodopsin were solubilized in 0.5 ml of PBS containing 0.5 mM phenylmethylsulfonyl fluoride with 1% DM or 2% (/vol) OG. The suspensions were centrifuged (100,000×g for 15 min), and the supernatants were kept in the dark at 4° C.
Thermal Stability Study of Rhodopsin in Peptide Solution in the Presence of the Surfactant. Rhodopsin solubilized (32-34) in PBS containing 2% (vol/vol) OG was added to the same volume of PBS containing 0, […], 5.0, or 7.5 mM A6D, 1.8% PEG, or 5.4 mM RAD8. In another experiment, rhodopsin solubilized in PBS containing 1% (19.8 mM) DM was added to the same volume of PBS containing 5.0 mM A6D or 0, 5.0, or 19.8 mM DM. A decrease in A500 was recorded every 5 min up to 110 min at 40° C. for the samples containing OG and at 40-55° C. for those containing DM (FIGS. 2 and 3). UV-visible absorption spectroscopy was performed with a Lambda 6 spectrophotometer (Perkin-Elmer, Wellesley, Mass.) equipped with a temperature regulated cuvette holder with a slit width of 2 nm, 480 nm/min scan speed, and a response time of 1 second. The A500 remaining at different time points was expressed as the percentage of absorbance present at the start of the experiment. The half-life of rhodopsin in each solution was calculated by using a single exponential curve fit. The plot obtained from the percentage of absorbance at different time points was fitted to a single exponential curve with two parameters (Eq. 1).
The plot obtained from the A500 values at different time points was directly fitted to a single exponential curve with three parameters (Eq. 2) when the plot from the percentage of absorbance could not be fitted to Eq. 1.
The half-life (t1/2) was calculated using Eq. 3.

[3] = tested on: photosystem I (PSI) protein complex; details: cited from earlier work; for Stabilization of the PSI complex (≈735-nm fluorescence maximum, words): surfactant added before drying the sample, emission at 77 K
[4] = biological target: T2, glycerol 3-phosphate dehydrogenase (Escherichia coli, UniProt P13035); details: in solution, assayed through protein gel electrophoresis; cited from earlier work
T2 sequence (P13035 1-501): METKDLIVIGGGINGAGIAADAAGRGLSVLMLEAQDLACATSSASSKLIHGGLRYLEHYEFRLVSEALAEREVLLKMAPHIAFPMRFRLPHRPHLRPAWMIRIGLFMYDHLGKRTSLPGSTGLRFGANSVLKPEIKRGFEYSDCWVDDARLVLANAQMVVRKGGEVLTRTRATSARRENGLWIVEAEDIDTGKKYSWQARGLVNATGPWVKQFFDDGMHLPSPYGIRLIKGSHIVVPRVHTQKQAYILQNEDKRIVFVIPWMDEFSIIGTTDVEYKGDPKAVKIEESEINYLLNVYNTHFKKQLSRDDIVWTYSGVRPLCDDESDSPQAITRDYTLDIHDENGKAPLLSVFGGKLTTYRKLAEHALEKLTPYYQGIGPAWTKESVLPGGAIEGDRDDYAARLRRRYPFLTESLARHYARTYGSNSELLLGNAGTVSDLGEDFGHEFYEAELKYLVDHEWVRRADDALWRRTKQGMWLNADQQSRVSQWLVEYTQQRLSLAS

GPCR bovine rhodopsin [5] = biological target: T1, GPCR bovine rhodopsin; assay: Thermal stability of rhodopsin in peptide solution in the absence of OG (decay of A500); assay type: biochemical; details: for Half-life of rhodopsin: control samples containing only OG, without A6D
Protocol: Thermal Stability of Rhodopsin in Peptide Solution in the Absence of OG. Rhodopsin solubilized in PBS containing 2% (vol/vol) OG was added to the same volume of PBS containing 2.5 mM A6D. […] Then, 0.5 ml of the mixture was poured into the tube. The tube was covered with 10 kDa of cutoff membrane and dialyzed against 4.5 ml of PBS containing 1.25 mM A6D for 40 h in the dark at 4° C. A resultant sample decrease in A500 was recorded every 5 min for 120 min at 40° C. A decrease in A500 of the predialysis mixture containing 1% OG and 1.25 mM A6D was also monitored as a control (FIG. 4A).

[6] = biological target: T3, delipidated bovine rhodopsin (Bos taurus, UniProt P02699); assay: Thermal stability of delipidated rhodopsin in the absence of phospholipids (decay of A500); assay type: biochemical
T3 construct: Bovine retinae rod outer segment membranes were prepared (40, 41) and urea-stripped (42); tissue J. A. Lawson (Lincoln, Nebr.); host or cells: bovine retinae, rod outer segments
T3 sequence (P02699 whole entry): as the sequence (P02699 whole entry) above
Protocol: Removal of Phospholipids from Rhodopsin. Samples of the membranes containing 4.7 nmol of rhodopsin were solubilized in 1,000 ul of PBS containing 2% (vol/vol) OG. The suspension was mixed with 250 ul (settled beads, concentration of 50%) of rhodopsin-1D4 Sepharose and rotated for 3 h. The 1D4 Sepharose beads were then packed into a minicolumn (7-mm inner diameter) and washed with PBS containing 1% OG by using 500 bed volumes (total of 62.5 ml). The rhodopsin was then eluted with 1.5 ml of PBS containing 1% OG and the C-terminal nanopeptide.
Thermal Stability Study of Rhodopsin in Peptide Solution in the Absence of Phospholipids. The delipidated rhodopsin solution was added to the same volume of 1% OG in PBS containing 0, 3.75, or 7.5 mM A6D, or 1.8% PEG (FIG. 4B). In another experiment, the delipidated rhodopsin solutions were poured into tubes. Each tube was covered with 10 kDa of cutoff membrane and dialyzed against 4.5 ml of PBS or PBS containing 1.25 mM A6D or 1% OG (FIG. 4C). For all samples, a decrease in A500 was recorded every 5 min, up to 120 min at 40° C.

[7] = non-peptide surfactant, medium not stated; cited from earlier work
phycobilisomes = assay: Stabilization of phycobilisomes, room temperature fluorescent spectroscopy (666 nm); assay type: biochemical, Porphridium Cruentum; details: for 666 nm fluorescence intensity: phycobilisomes after buffer change to 0.4M PBS, excitation 540 nm, room temperature
Protocol: Methods: Native phycobilisomes were isolated from Porphridium Cruentum, purified by Martek Biosciences and received in stabilizing buffer (0.75 M PBS, pH ˜7). Peptergents (ac-A6D and ac-A6K—NH2) were used as supplied (CPC Scientific) without further purification. Briefly, phycobilisomes (1 ng/mL) were mixed with peptergent-0.75M PBS solutions (0, 1, 2, 4 and 8 critical aggregation concentrations (CAC)). Phycobilisome-peptide solutions were dialyzed (3400 MWCO) against PBS solutions of various molarity (0.6-0.01M) for 18 h, in the dark. Room temperature fluorescent spectroscopy of these solutions was conducted using an excitation wavelength of 540 nm and emitted fluorescence (550-700 nm) were collected. UV-Vis spectra were obtained to confirm solution concentrations for all acquired fluorescent data.

GPCR bovine rhodopsin [8] = biological target: T1, GPCR bovine rhodopsin; assay: Thermal stability of rhodopsin in peptide solution in the presence of surfactant (decay of A500); assay type: biochemical; details: control solution (1.25 mM A6D/1% OG), 50° C.
[9] = in phosphate-based saline (PBS) (10 mM sodium phosphate/150 mM NaCl, pH 7.4)

VVVVVVDD [V6D2] showed a CAC ([1]; in water) of 1.1 mM.
For “Ac-n-RADARADA-c-NH2 (Ac-RADARADA-NH2) [RAD8, octapeptide similar in size to A6D without significant surfactant properties]”, the Half-life of rhodopsin (GPCR bovine rhodopsin [2]; rhodopsin/phospholipid, 2.8 mM RAD8/1% OG, 40° C.) was 99 min and ≈ 99 min.
For VVVVVVD [V6D], the CAC ([1]; in water) is given as about 0.7 mM, the “Stabilization of the PSI complex (≈735-nm fluorescence maximum, words)” value (“Stabilization of the PSI complex” for short) [3] is given as “also stabilized the complex, but to a lesser extent” and the “Solubilized membrane protein function” value [4] is given as “retaining its functional enzymatic activities”.
For CCCCCCCCO[C@@H]1O[C@H](CO)[C@@H](O)[C@H](O)[C@H]1O [OG, octyl-D-glucoside], the Half-life of rhodopsin (GPCR bovine rhodopsin [2]; rhodopsin/phospholipids in 1% OG (PBS), 40° C.) was 71 min and ≈ 71 min, the Half-life of rhodopsin (GPCR bovine rhodopsin [5]; 40° C.) was “≈ 101 min” and the Half-life of rhodopsin (GPCR bovine rhodopsin [5]; 50° C.) was “≈ 5 min”. For the same molecule, the “Stabilization effect on delipidated rhodopsin” value ([6]; OG added to delipidated rhodopsin, 40° C.) was “did not have a significant stabilization effect”, the Half-life of rhodopsin ([6]; delipidated rhodopsin dialyzed against 1% OG (control), 40° C.) was 27 min and the Half-life of rhodopsin ([6]; delipidated rhodopsin, 1% OG, 40° C. (A6D concentration series)) was 23 min. For the same molecule, the CAC [7] was “≈ 5 mM” and the “Stabilization of the PSI complex” value [3] was “did not stabilize”.
In the case of AAAAAAK [A6K], the CAC [1, 9] is reported as “≈ 0.23 mM”, the CAC ([1]; in water) is reported as about 1.5 mM and the “666 nm fluorescence intensity” value (phycobilisomes) is reported as 0.7 ×10^5 cps. The “Time the PSI complex is stable in a dried form” value ([3]; room temperature, in the presence of the peptide surfactant) was “at least 3 weeks” and the “Stabilization of the PSI complex” value [3] was “significantly stabilized the PSI complex”.
For CCCCCCCCCCCCO[C@@H]1O[C@H](CO)[C@@H](O[C@H]2O[C@H](CO)[C@@H](O)[C@H](O)[C@H]2O)[C@H](O)[C@H]1O [DM, n-dodecyl-B-D-maltoside], the Half-life of rhodopsin (GPCR bovine rhodopsin [2]; 12.3 mM DM, 50° C.) was 96 min, the Half-life of rhodopsin (GPCR bovine rhodopsin [2]; rhodopsin/phospholipid, 13.3 mM DM (89×CAC)) was “≈ 93 min” and the Half-life of rhodopsin (GPCR bovine rhodopsin [2]; rhodopsin/phospholipids, 9.8 mM DM, 50° C.) was 102 min and ≈ 102 min. For the same molecule, the Half-life of rhodopsin (GPCR bovine rhodopsin [2]; rhodopsin/phospholipids, 19.6 mM DM, 50° C.) was 96 min and ≈ 93 min, the CAC [7] was “≈ 0.15 mM” and the “Stabilization of the PSI complex” value [3] was “did not stabilize”.
For AAAAAAD [A6D], the CAC [1, 9] was 0.25 mM, the CAC ([1]; in water) was about 1.6 mM and the “fold increase in stability compared with the stability in OG alone” value (from here on “fold increase in stability … in OG alone”) (GPCR bovine rhodopsin [2]; 2.5 mM A6D/1% OG, rhodopsin/phospholipids, 40° C.) was 2.5 fold. For the same molecule, the “fold increase in stability of rhodopsin” value (GPCR bovine rhodopsin [2]; 3.75 mM A6D/1% OG, rhodopsin/lipid, 40° C.) was about 4 fold, the Half-life of rhodopsin (GPCR bovine rhodopsin [2]; rhodopsin/lipid, 1.25 mM A6D/1% OG, 40° C.) was 101 min and ≈ 101 min and the Half-life of rhodopsin (GPCR bovine rhodopsin [2]; rhodopsin/lipid, 3.75 mM A6D/1% OG, 40° C.) was 277 min and ≈ 277 min. The Half-life of rhodopsin (GPCR bovine rhodopsin [2]; rhodopsin/phospholipids, 2.5 mM A6D/1% OG, 40° C.) was 173 min and ≈ 173 min, the “Thermal stability of rhodopsin” value (GPCR bovine rhodopsin [2]; rhodopsin/phospholipids/DM (9.8 mM) plus 2.5 mM A6D, 50° C.) was “extremely stable with little decay” and the “Thermal stability of rhodopsin” value (GPCR bovine rhodopsin [5]; rhodopsin/lipid/A6D complex without OG, 2.5 mM A6D, 40° C., 50° C., and 55° C.) was “very stable at all tested temperatures with little denaturation”. The Half-life of rhodopsin ([6]; delipidated rhodopsin, 1.25 mM A6D alone, no OG, no phospholipids, 40° C.) was 122 min and ≈ 122 min, the “fold increase in stability … in OG alone” value ([6]; delipidated rhodopsin, 1.87 mM A6D in OG, 40° C.) was 2.8 fold and the Half-life of rhodopsin ([6]; delipidated rhodopsin, 1.87 mM A6D/1% OG, 40° C.) was 76 min and ≈ 76 min. The “fold increase in stability … in OG alone” value ([6]; delipidated rhodopsin, 3.75 mM A6D in OG, 40° C.) was 4.7 fold, the Half-life of rhodopsin ([6]; delipidated rhodopsin, 3.75 mM A6D/1% OG, 40° C.) was 128 min and ≈ 128 min and the “fold increase in stability” value ([6]; delipidated rhodopsin, A6D alone vs absence of both phospholipids and OG, 40° C.) was 2.6 fold. The “Concentration normalized signal strength” value (phycobilisomes; 666 nm, versus stabilized control) was “very similar to the stabilized control”, the “666 nm fluorescence intensity” value (phycobilisomes) was 1.3 ×10^5 cps and the Half-life of rhodopsin (GPCR bovine rhodopsin [8]) was under 5 min.
